Reference: the supplement of paper PMC7877785
± gives the uncertainty stated by the source.

Test: self-splicing fitness, log relative to wild type (ln ratio); higher = more splicing; Tetrahymena group I intron in knt gene, E. coli kanamycin selection, DiMSum; sequences stand for … in CUCUCU…GGAGGGAAAAGUUAUCAGGCAUGCACCUGGUAGCUAGUCUUUAAACCAAUAGAUUGCAUCGGUUUAAAAGGCAAGACCGUCAAAUUGCGGGAAAGGGGUCAACAGCCGUUCAGUACCAAGUCUCAGGGGAAACUUUGAGAUGGCCUUGCAAAGGGUAUGGUAAUAAGCUGACGGACAUGGUCCUAACCACGCAGCCAAGUCCUAAGUCAACAGAUCUUCUGUUGAUAUGGAUGCAGUUCACAGACUAAAUGUCGGUCGGGGAAGAUGUAUUCUUCUCAUAAGAUAUAGUCGGACCUCUCCUUAAUGGGAGCUAGCGGAUGAAGUGAUGCAACACUGGAGCCGCUGGGAACUAAUUUGUAUGCGAAAGUAUAUUGAUUAGUUUUGGAGUACUCGUGGUCG
Procedure, shortened: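 Library with all eight P1ex-region intron nucleotides randomised, intron inside the knt kanamycin-resistance gene on pET-22b(+), in E. coli BL21(DE3). Cells grew overnight at 37°C or 30°C on LB agar with or without 25 μg/mL kanamycin (plus 100 μg/mL carbenicillin, 50 μM IPTG, 0.2% rhamnose), in six replicate transformations. Pooled colonies were amplicon-sequenced on Illumina HiSeq 2500. DiMSum fitness is the error-weighted combination of wild-type-normalised replicate fold changes, kanamycin versus none.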

Row | Sequence | self-splicing fitness (ln) (30 °C) | self-splicing fitness (ln) (37 °C)
1 | UCAUAGCAAUAUUACGAUGA | -2.65 ± 0.18 | -0.815 ± 0.11
2 | UCAUAGCAAUAUUACGCACG | -2.05 ± 0.11 | -0.462 ± 0.13
3 | UCAUAGCAAUAUUACGCACU | -3.19 ± 0.25 | -3.18 ± 0.32
4 | UCAUAGCAAUAUUACGCAUC | -3.59 ± 0.3 | -3.1 ± 0.33
5 | UCAUAGCAAUAUUACGCAUG | -4.52 ± 0.27 | -2.77 ± 0.23
6 | UCAUAGCAAUAUUACGCCUA | -2.62 ± 0.34 | -1.85 ± 0.27
7 | UCAUAGCAAUAUUACGCUGA | -2.32 ± 0.26 | -1.85 ± 0.28
8 | UCAUAGCAAUAUUACGGAGC | -2.3 ± 0.29 | -3.14 ± 0.4
9 | UCAUAGCAAUAUUACGGAUA | -1.51 ± 0.23 | -2.59 ± 0.33
10 | UCAUAGCAAUAUUACGGAUU | -3.52 ± 0.12 | -3.06 ± 0.16
11 | UCAUAGCAAUAUUACGGCAA | -2.25 ± 0.13 | -1.14 ± 0.1
12 | UCAUAGCAAUAUUACGGUGC | -2.88 ± 0.21 | -3.08 ± 0.26
13 | UCAUAGCAAUAUUACGUAAA | -2.76 ± 0.19 | -1.99 ± 0.21
14 | UCAUAGCAAUAUUACGUAUG | -3.28 ± 0.16 | -2.09 ± 0.11
15 | UCAUAGCAAUAUUACGUGAG | -1.1 ± 0.081 | -0.39 ± 0.11
16 | UCAUAGCAAUAUUACGUGUG | -1.8 ± 0.068 | -1.84 ± 0.075
17 | UCAUAGCAAUAUUACGUUAU | -3.05 ± 0.14 | -2.21 ± 0.16
18 | UCAUAGCAAUAUUACGUUCA | -1.73 ± 0.1 | -1.57 ± 0.1
19 | UCAUAGCAAUAUUACGUUCC | – | -1.99 ± 0.29
20 | UCAUAGCAAUAUUACGUUCG | -1.03 ± 0.098 | -0.686 ± 0.1
21 | UCAUAGCAAUAUUACGUUGG | -4.13 ± 0.46 | -1.05 ± 0.24
22 | UCCAAGCAAUAUUACGAAGC | -2.87 ± 0.25 | -1.93 ± 0.21
23 | UCCAAGCAAUAUUACGACAA | -2.14 ± 0.13 | -1.47 ± 0.1
24 | UCCAAGCAAUAUUACGACUA | -1.2 ± 0.12 | 0.12 ± 0.1
25 | UCCAAGCAAUAUUACGAGCG | -1.96 ± 0.081 | -0.978 ± 0.099

Row | Sequence | self-splicing fitness (ln) (30 °C) | self-splicing fitness (ln) (37 °C)
26 | UCCAAGCAAUAUUACGCAAA | -2.18 ± 0.24 | -0.843 ± 0.17
27 | UCCAAGCAAUAUUACGCAGU | -2.03 ± 0.082 | -0.856 ± 0.093
28 | UCCAAGCAAUAUUACGCCUA | -0.968 ± 0.12 | 0.0562 ± 0.1
29 | UCCAAGCAAUAUUACGCUGG | -4.72 ± 0.28 | -1.81 ± 0.18
30 | UCCAAGCAAUAUUACGCUUC | -3.36 ± 0.15 | -4.24 ± 0.2
31 | UCCAAGCAAUAUUACGGACU | -3.5 ± 0.21 | -2.28 ± 0.18
32 | UCCAAGCAAUAUUACGGCUC | -3.84 ± 0.37 | –
33 | UCCAAGCAAUAUUACGGGGU | -2.76 ± 0.11 | -1.96 ± 0.13
34 | UCCAAGCAAUAUUACGGGUG | -1.63 ± 0.05 | -0.583 ± 0.06
35 | UCCAAGCAAUAUUACGGUGA | -0.389 ± 0.054 | 0.493 ± 0.077
36 | UCCAAGCAAUAUUACGGUGU | -0.788 ± 0.047 | 0.18 ± 0.066
37 | UCCAAGCAAUAUUACGGUUU | -3.75 ± 0.2 | -2.48 ± 0.21
38 | UCCAAGCAAUAUUACGUCUC | -3.53 ± 0.32 | -2.02 ± 0.46
39 | UCCAAGCAAUAUUACGUGUC | -3.42 ± 0.12 | -2.94 ± 0.12
40 | UCCAAGCAAUAUUACGUUCC | – | -1.57 ± 0.31
41 | UCCCAGCAAUAUUACGAAGG | -3.68 ± 0.23 | -1.63 ± 0.23
42 | UCCCAGCAAUAUUACGACAG | – | -3.55 ± 0.37
43 | UCCCAGCAAUAUUACGACCA | -1.65 ± 0.13 | -1.06 ± 0.23
44 | UCCCAGCAAUAUUACGAGAC | -3.6 ± 0.28 | -0.749 ± 0.16
45 | UCCCAGCAAUAUUACGAGAU | -3.57 ± 0.23 | -2.66 ± 0.17
46 | UCCCAGCAAUAUUACGAGUA | -1 ± 0.072 | -0.558 ± 0.069
47 | UCCCAGCAAUAUUACGAUCA | -1.48 ± 0.14 | -0.722 ± 0.14
48 | UCCCAGCAAUAUUACGAUUC | -4.67 ± 0.32 | -1.97 ± 0.14
49 | UCCCAGCAAUAUUACGCCGG | -2.84 ± 0.28 | -1.21 ± 0.3
50 | UCCCAGCAAUAUUACGCGCU | -4.15 ± 0.33 | -2.84 ± 0.34

Row | Sequence | self-splicing fitness (ln) (30 °C) | self-splicing fitness (ln) (37 °C)
51 | UCCCAGCAAUAUUACGCUAU | -4.27 ± 0.21 | -1.31 ± 0.11
52 | UCCCAGCAAUAUUACGGCAU | -2.77 ± 0.11 | -1.01 ± 0.11
53 | UCCCAGCAAUAUUACGGCUA | -1.31 ± 0.12 | -1.19 ± 0.12
54 | UCCCAGCAAUAUUACGUCCG | – | -2.06 ± 0.47
55 | UCCCAGCAAUAUUACGUCGG | -2.16 ± 0.13 | -2.59 ± 0.23
56 | UCCCAGCAAUAUUACGUGGG | -3.37 ± 0.1 | -2.85 ± 0.16
57 | UCCCAGCAAUAUUACGUGUA | 0.0644 ± 0.061 | -0.0313 ± 0.073
58 | UCCGAGCAAUAUUACGACAC | -2.81 ± 0.21 | -2.33 ± 0.23
59 | UCCGAGCAAUAUUACGACCU | -3.35 ± 0.26 | -2.74 ± 0.36
60 | UCCGAGCAAUAUUACGAGAC | -3.1 ± 0.32 | -2.81 ± 0.4
61 | UCCGAGCAAUAUUACGCAAU | – | -2.91 ± 0.34
62 | UCCGAGCAAUAUUACGCACG | -3.01 ± 0.43 | –
63 | UCCGAGCAAUAUUACGCCGC | – | -2.15 ± 0.49
64 | UCCGAGCAAUAUUACGCCGG | -2.87 ± 0.36 | -2.15 ± 0.28
65 | UCCGAGCAAUAUUACGCCUU | -2.35 ± 0.35 | –
66 | UCCGAGCAAUAUUACGCGAG | – | -1.2 ± 0.24
67 | UCCGAGCAAUAUUACGGAGA | -1.83 ± 0.18 | -1.7 ± 0.27
68 | UCCGAGCAAUAUUACGGAGU | -3.73 ± 0.21 | -2.74 ± 0.22
69 | UCCGAGCAAUAUUACGGCGC | – | -3.02 ± 0.37
70 | UCCGAGCAAUAUUACGGCUG | -2.83 ± 0.19 | -1.6 ± 0.29
71 | UCCGAGCAAUAUUACGGGAC | -3.59 ± 0.18 | -2.2 ± 0.15
72 | UCCGAGCAAUAUUACGGGAU | -3.44 ± 0.33 | –
73 | UCCGAGCAAUAUUACGUCAA | -2.89 ± 0.26 | -2.27 ± 0.36
74 | UCCGAGCAAUAUUACGUCGA | -1.21 ± 0.16 | -0.238 ± 0.13
75 | UCCGAGCAAUAUUACGUGGA | -2.47 ± 0.17 | -2.52 ± 0.19

Row | Sequence | self-splicing fitness (ln) (30 °C) | self-splicing fitness (ln) (37 °C)
76 | UCCGAGCAAUAUUACGUGUA | -2.55 ± 0.086 | -1.9 ± 0.082
77 | UCCGAGCAAUAUUACGUUUC | -3.39 ± 0.22 | -2.11 ± 0.34
78 | UCCUAGCAAUAUUACGAAGU | -1.47 ± 0.1 | -0.726 ± 0.14
79 | UCCUAGCAAUAUUACGACAA | – | -2.04 ± 0.29
80 | UCCUAGCAAUAUUACGACGC | -2.35 ± 0.17 | -2.02 ± 0.2
81 | UCCUAGCAAUAUUACGAGAU | -2.85 ± 0.16 | -1.7 ± 0.19
82 | UCCUAGCAAUAUUACGAUAA | -3.25 ± 0.29 | -1.56 ± 0.17
83 | UCCUAGCAAUAUUACGAUAC | -3.42 ± 0.35 | -2.41 ± 0.44
84 | UCCUAGCAAUAUUACGCACG | -3.34 ± 0.37 | -1.87 ± 0.47
85 | UCCUAGCAAUAUUACGCAGA | -1.87 ± 0.2 | -0.401 ± 0.15
86 | UCCUAGCAAUAUUACGCCCC | -2.75 ± 0.45 | -2.12 ± 0.42
87 | UCCUAGCAAUAUUACGCCGC | -3.1 ± 0.26 | -3.49 ± 0.35
88 | UCCUAGCAAUAUUACGCGGC | -3.42 ± 0.44 | –
89 | UCCUAGCAAUAUUACGCUGU | -2.52 ± 0.22 | -2.23 ± 0.27
90 | UCCUAGCAAUAUUACGCUUG | -3.79 ± 0.21 | -2.46 ± 0.17
91 | UCCUAGCAAUAUUACGUACU | -3.41 ± 0.3 | -2 ± 0.26
92 | UCCUAGCAAUAUUACGUGAG | -2.64 ± 0.14 | -1.94 ± 0.17
93 | UCCUAGCAAUAUUACGUUCA | -2.91 ± 0.35 | -2.38 ± 0.25
94 | UCGAAGCAAUAUUACGACAA | -1.59 ± 0.14 | -1.07 ± 0.15
95 | UCGAAGCAAUAUUACGAGCU | -3.7 ± 0.47 | -1.24 ± 0.39
96 | UCGAAGCAAUAUUACGAGGC | – | -2.15 ± 0.49
97 | UCGAAGCAAUAUUACGAUCA | -1.46 ± 0.18 | -0.436 ± 0.23
98 | UCGAAGCAAUAUUACGCAAG | -2.17 ± 0.12 | -1.6 ± 0.13
99 | UCGAAGCAAUAUUACGCAUA | -3.01 ± 0.36 | -2.72 ± 0.26
100 | UCGAAGCAAUAUUACGCUGC | -3.55 ± 0.43 | -1.49 ± 0.4
